Read-outs that look alike come from different tables or passages of the source. Marks after values point to notes of the source that are not given here.
Columns and labels:
[1] = test system: human lung carcinoma cells (A549); details: cited from earlier work
[2] = test system: human gastric cancer cells (SGC-7901); details: cited from earlier work
B16F10 orthotopic tumor = details: for Mortality rate (administration for 28 days) / Mortality rate (administration for 56 days): dead mice/animal number
Procedure: The mice were transplanted with a melanoma cells line B16-F10.
The mice melanoma cells B16-F10 were cultured in the DMEM containing 10% fetal bovine serum, at 37° C. in the CO2 thermostat incubator. 200 μl of B16-F10 cell suspension (containing 1×10^7 cells) was slowly subcutaneously injected into a dorsal-ventral side of the mouse through 1 ml syringe, so as to establish a model of mice transplanted with tumors. […] The rLZ-8 was injected once per day; the DTIC was continuously tail-intravenously injected for 5 days and injected for a second time after 3 weeks. During the experiment, living states of the mice were observed; the mice were weighed once every 7 days; blood samples were taken from tail veins of the mice every 2 weeks; volumes of the tumors, subcutaneously injected into the mice, were measured every 2 days; for each group, the tumors were dissected at an end of the experiment and weighed on the balance, with weights recorded. According to a formula that a tumor growth inhibition rate=(an average weight of the tumors of the physiological saline group−an average weight of the tumors of the drug administrated groups)/the average weight of the tumors of the physiological saline group, the inhibition rate of the rLZ-8 upon the growth of the orthotopic tumor was calculated.

[3] = test system: IFN-γ secreting expression; assay: Neutralization activity of anti-rLZ-8 antibody by biological activity method (IFN-γ secreting expression stimulated by rLZ-8); assay type: cell-based
Procedure: As a fungal recombinant genetic engineering drug, it is crucial to track generation of antibody of the rLZ-8 for a preclinical evaluation. Blood serum of normal monkeys, Macaca fascicularis, after being continuously administrated, was selected for testing antibody of the rLZ-8 by ELISA and for testing a neutralization activity of anti-rLZ-8 antibody by a biological activity method.
On the 9th-11th days of administrating the drug, three monkeys were tested to have low titer (1:5) of the anti-rLZ-8 antibody; after the 28th day of administrating, the titer of the antibody maintained low, within a range of 1:25 to 1:125. No anti-rLZ-8 antibody was tested from the monkeys of the contrast group. […] Therefore, the inhibition effect of the monkey blood serum was not the property of the competitive neutralizing antibody.

[4] = Toxicity test of rLZ-8 on SD rats; assay type: in vivo; set-up: Weight gains, male / Weight gains, female / BUN (blood urea nitrogen) / CHE (cholinesterase) / CRE (creatinine) / TBA (total bile acid) / UA (uric acid) / ALT (alanine aminotransferase) / AST (aspartate aminotransferase): unit not given here; details: for Weight gains, female: female SD rats; for Weight gains, female / Weight gains, male: 46 days; for Weight gains, male: male SD rats
Procedure: The administration dosages for the rats were calculated based on the administration dosage for the mice; the rats were divided into a contrast group (physiological saline), a low dosage group (15 μl/kg weight), a medium dosage group (30 μl/kg weight) and a high dosage group (60 μl/kg weight). The administration manner was an intraperitoneal injection.
Feeding amount, weight; serology: liver function and kidney function; immunity: thymus index and spleen index; serum complements IgM, IgG, C3 and C4; pathology examination: heart, liver, spleen, lung, kidney, pancreas, thymus, gonad etc.

B16-F10 lung metastases = assay: B16-F10 melanoma lung metastasis model (tail vein injection) in Kunming mice; assay type: in vivo; details: for Survival rate when all mice of the negative contrast group were dead: 87th / 95th day after injecting the tumors
Text: DMEM, fetal bovine serum, PBS, trypsin-EDTA, DMSO, Tris-HCl buffer with pH 7.6 for rinsing, 0.05% trypsin, rLZ-8, and DTIC.
After the mice were put to death, lungs of the dead mice were dissected out and the number of black spots on surfaces of the lungs, formed by an aggregation of metastasis cell, was counted, so as to calculate the inhibition rate of the drug against the growth of the lung metastasis as: inhibition rate=(an average metastasis number of the negative contrast group−an average metastasis number of the drug administrated group)/the average metastasis number of the negative contrast group×100%. A time and the number of the dead mouse in each experiment group were recorded in detail, especially during administrating the drug continuously, until the negative contrast group was completely dead; and then, the survival states of the mice in the experiment groups and the contrast groups were analyzed. A survival rate was calculated according to the number of the dead mice in the other groups when all the mice of the negative contrast group were dead, based on a formula that survival rate=(a total number of the mice−the number of the dead mice)/the total number of the mice.

[5] = medium dosage 246 μg/kg, 28 days
[6] = medium dosage 246 μg/kg, 56 days
[7] = culture medium with anti-rLZ-8 antibody positive (1:125) monkey blood serum diluted 10 times
[8] = high dosage 60 μl/kg weight i.p.
[9] = low dosage 15 μl/kg weight i.p.
[10] = medium dosage 30 μl/kg weight i.p.

B1: rLZ-8: recombinant ganoderma immunoregulatory protein (LZ-8), fungal immunoregulatory protein obtained by gene engineering (protein, UniProt P14945 2-111, looked up)
Immunomodulatory protein Ling …: SDTALIFRLAWDVKKLSFDYTPNWGRGNPNNFIDTVTFPKVLTDKAYTYRVAVSGRNLGVKPSYAVESDGSQKVNFLEYNSGYGIADTNTIQVFVVDPDTNNDFIIAQWN
- Killing of cells in vitro [1]: effectively kills
- Killing of cells in vitro [2]: effectively kills
- Increase of tumor inhibition rate between administration for 28 days and for 56 days (B16F10 orthotopic tumor; each rLZ-8 dosage group): around 15%
- Tumor weight (B16F10 orthotopic tumor; high dosage 492 μg/kg tail i.v. once per day, 28 days): 0.14 ± 0.04 g
- Tumor growth inhibition rate (B16F10 orthotopic tumor; high dosage 492 μg/kg, 28 days): 88.49 ± 0.51 %
- Tumor volume (B16F10 orthotopic tumor; high dosage 492 μg/kg, 28 days): 0.11 ± 0.03** mm^3
- Tumor growth inhibition rate (B16F10 orthotopic tumor; high dosage 492 μg/kg, 56 days): 95.66±1.77%
- Tumor volume (B16F10 orthotopic tumor; high dosage 492 μg/kg, 56 days): 0.13 ± 0.09**^## mm^3
- Tumor weight (B16F10 orthotopic tumor; high dosage 492 μg/kg, 56 days): 0.15 ± 0.07 g
- Mortality rate (administration for 28 days) (B16F10 orthotopic tumor; high dosage 492 μg/kg): 0/10
- Mortality rate (administration for 56 days) (B16F10 orthotopic tumor; high dosage 492 μg/kg): 0/10
- Tumor weight (B16F10 orthotopic tumor; low dosage 123 μg/kg tail i.v. once per day, 28 days): 0.6 ± 0.21 g
- Tumor growth inhibition rate (B16F10 orthotopic tumor; low dosage 123 μg/kg, 28 days): 51.81 ± 0.41 %
- Tumor volume (B16F10 orthotopic tumor; low dosage 123 μg/kg, 28 days): 0.5 ± 0.14**^## mm^3
- Tumor growth inhibition rate (B16F10 orthotopic tumor; low dosage 123 μg/kg, 56 days): 76.76 ± 0.53 %
- Tumor volume (B16F10 orthotopic tumor; low dosage 123 μg/kg, 56 days): 0.65 ± 0.24**^# mm^3
- Tumor weight (B16F10 orthotopic tumor; low dosage 123 μg/kg, 56 days): 0.79 ± 0.31**^ g
- Mortality rate (administration for 28 days) (B16F10 orthotopic tumor; low dosage 123 μg/kg): 0/10
- Mortality rate (administration for 56 days) (B16F10 orthotopic tumor; low dosage 123 μg/kg): 0/10
- Tumor weight (B16F10 orthotopic tumor; medium dosage 246 μg/kg tail i.v. once per day, 28 days): 0.43 ± 0.17 g
- Tumor growth inhibition rate (B16F10 orthotopic tumor; [5]): 65.00 ± 0.77 %
- Tumor volume (B16F10 orthotopic tumor; [5]): 0.36 ± 0.14**^## mm^3
- Tumor growth inhibition rate (B16F10 orthotopic tumor; [6]): 80.10 ± 1.01 %
- Tumor volume (B16F10 orthotopic tumor; [6]): 0.56 ± 0.18**^## mm^3
- Tumor weight (B16F10 orthotopic tumor; [6]): 0.68 ± 0.19 g
- Mortality rate (administration for 28 days) (B16F10 orthotopic tumor; medium dosage 246 μg/kg): 0/10
- Mortality rate (administration for 56 days) (B16F10 orthotopic tumor; medium dosage 246 μg/kg): 0/10
- Body leukocyte number (B16F10 orthotopic tumor; tumor-bearing mice, tail vein blood, anti-tumor treatment experiment (28/56 days)): small impact on the body leukocyte number
- Maximum expression value (Emax) of value A [3, 7]: 0.78±0.09
- Slope of the curve [3, 7]: 0.77±0.20
- Generation of neutralizing antibody ([3]; monkeys, continuous administration): does not generate the neutralizing antibody
- Half maximal inhibitory concentration IC50 ([3]; with antibody positive monkey blood serum versus without): increased
- Impact on liver function and kidney function ([4]; SD rats, all dosage groups): no obvious adverse impact on the liver function and the kidney function
- Pathology examination of tested organs ([4]; compared with the organs of the contrast group): no obvious morphological change
- Weight gains, female [4, 8]: 133.37 ± 15.29
- Weight gains, female [4, 9]: 140.00 ± 23.48
- Weight gains, female [4, 10]: 124.08 ± 14.17
- ALB (albumin) [4, 8]: 34.77 ± 1.44
- ALP (alkaline phosphatase) [4, 8]: 218.50 ± 69.98
- ALT (alanine aminotransferase) [4, 8]: 30.75 ± 2.42
- AST (aspartate aminotransferase) [4, 8]: 128.58 ± 18.74
- BUN (blood urea nitrogen) [4, 8]: 7.24 ± 0.89
- C3 [4, 8]: 0.428 ± 0.082 g/L
- C4 [4, 8]: 0.352 ± 0.016 g/L
- CHE (cholinesterase) [4, 8]: 456.17 ± 309.59
- CRE (creatinine) [4, 8]: 24.22 ± 2.55
- IgG [4, 8]: 0.124 ± 0.081 g/L
- IgM [4, 8]: 0.236 ± 0.076 g/L
- Spleen index (spleen weight/weight × 100) [4, 8]: 0.19 ± 0.02
- TBA (total bile acid) [4, 8]: 37.30 ± 17.63
- TP (total protein) [4, 8]: 63.23 ± 2.88
- Thymus index (thymus weight/weight × 100) [4, 8]: 0.17 ± 0.03
- UA (uric acid) [4, 8]: 164.50 ± 28.94
- ALB (albumin) [4, 9]: 37.54 ± 1.62
- ALP (alkaline phosphatase) [4, 9]: 243.50 ± 103.54
- ALT (alanine aminotransferase) [4, 9]: 35.50 ± 4.93
- AST (aspartate aminotransferase) [4, 9]: 175.00 ± 34.96
- BUN (blood urea nitrogen) [4, 9]: 7.54 ± 0.47
- C3 [4, 9]: 0.449 ± 0.097 g/L
- C4 [4, 9]: 0.397 ± 0.021 g/L
- CHE (cholinesterase) [4, 9]: 474.17 ± 305.10
- CRE (creatinine) [4, 9]: 24.97 ± 1.89
- IgG [4, 9]: 0.146 ± 0.021 g/L
- IgM [4, 9]: 0.220 ± 0.080 g/L
- Spleen index (spleen weight/weight × 100) [4, 9]: 0.19 ± 0.03
- TBA (total bile acid) [4, 9]: 30.13 ± 16.29
- TP (total protein) [4, 9]: 67.58 ± 3.34
- Thymus index (thymus weight/weight × 100) [4, 9]: 0.15 ± 0.03
- UA (uric acid) [4, 9]: 174.42 ± 46.65
- Weight gains, male [4, 8]: 221.92 ± 21.84
- Weight gains, male [4, 9]: 215.25 ± 17.82
- Weight gains, male [4, 10]: 218.67 ± 10.89
- ALB (albumin) [4, 10]: 36.57 ± 2.20
- ALP (alkaline phosphatase) [4, 10]: 242.83 ± 80.94
- ALT (alanine aminotransferase) [4, 10]: 34.42 ± 4.50
- AST (aspartate aminotransferase) [4, 10]: 169.08 ± 30.83
- BUN (blood urea nitrogen) [4, 10]: 7.36 ± 0.97
- C3 [4, 10]: 0.457 ± 0.088 g/L
- C4 [4, 10]: 0.412 ± 0.017 g/L
- CHE (cholinesterase) [4, 10]: 487.17 ± 303.02
- CRE (creatinine) [4, 10]: 24.26 ± 3.55
- IgG [4, 10]: 0.121 ± 0.021 g/L
- IgM [4, 10]: 0.228 ± 0.084 g/L
- Spleen index (spleen weight/weight × 100) [4, 10]: 0.18 ± 0.02
- TBA (total bile acid) [4, 10]: 38.25 ± 18.15
- TP (total protein) [4, 10]: 66.58 ± 4.77
- Thymus index (thymus weight/weight × 100) [4, 10]: 0.12 ± 0.02
- UA (uric acid) [4, 10]: 186.83 ± 45.67
- Survival rate when all mice of the negative contrast group were dead (B16-F10 lung metastases; high dosage 492 μg/kg): 10%
- Tumor metastases inhibition rate (B16-F10 lung metastases; high dosage 492 μg/kg, 28 days): 71.17±2.43%
- Tumor metastases inhibition rate (B16-F10 lung metastases; high dosage 492 μg/kg, 56 days): 89.78 ± 2.77 %
- Survival rate when all mice of the negative contrast group were dead (B16-F10 lung metastases; low dosage 123 μg/kg): 25%
- Tumor metastases inhibition rate (B16-F10 lung metastases; low dosage 123 μg/kg, 28 days): 62.13±1.88%
- Tumor metastases inhibition rate (B16-F10 lung metastases; low dosage 123 μg/kg, 56 days): 66.18 ± 1.79 %
- Survival rate when all mice of the negative contrast group were dead (B16-F10 lung metastases; medium dosage 246 μg/kg): 30%
- Tumor metastases inhibition rate (B16-F10 lung metastases; [6]): 84.31 ± 3.12 %
